In the RNAGym collection of RNA variant scans (doi:10.7554/elife.90254):

B1: LINE1-mini (parent)
chain: GGCAGAGCUCAACACAGCGUGGCAAAGUGGCUGUGGCUAGACUGCC

Variants of: B1
Experiment: self-cleavage, relative activity (ratio to wild type); higher = more cleavage; in vitro, sequencing; the parent is a self-cleaving ribozyme

In order of rising self-cleavage:
1. GGCAGAGCUCGACACAGGGUGGCAAAGUGGCUGUGGCUAGACUGCC [A11G C18G]  0.02
2. GGCAGAGCUCAACACAGCGUGGCAAAGUGGCUGCGGCUACACUGCC [U34C G40C]  0.02
3. GGCAGAUCUCAACACAGCGUGGCAAAGUGGCUGUGGCUAGACUGCU [G7U C46U]  0.03
4. GUCAGAGCUCAACACAGGGUGGCAAAGUGGCUGUGGCUAGACUGCC [G2U C18G]  0.03
5. GGCAGAGCUCUACACAGCGUGGCAAAGUGGCUUUGGCUAGACUGCC [A11U G33U]  0.04
6. GGCAGAGCUCAACACAGCGUGGUAAAGUGGCUGUGGCGAGACUGCC [C23U U38G]  0.04
7. GUCAGAGCUCAACACAGCGUGGCAAAGUGGCUUUGGCUAGACUGCC [G2U G33U]  0.04
8. GGCAGAGCUCAACACAGCAUGGCAAAGUGGCUGUGGCUAGAGUGCC [G19A C42G]  0.04
9. GGCAGGGCUCAACACAGCGUGGCAAAGUGGCUGAGGCUAGACUGCC [A6G U34A]  0.04
10. GGCAGAGCUCAACAAAGCGUGGCAAAGUGGCUGGGGCUAGACUGCC [C15A U34G]  0.05
11. GGCAGAGCUCAACACAACGUGGCAAAGUGGCUGUGGAUAGACUGCC [G17A C37A]  0.05
12. GGCAGAGCUCAACACAGCGUGGCAAAGUUGCUCUGGCUAGACUGCC [G29U G33C]  0.06
13. GGCAGAGCUAAACGCAGCGUGGCAAAGUGGCUGUGGCUAGACUGCC [C10A A14G]  0.06
14. GGCAGAGCUCAACACAGCGUGGCAAAGUGCCUGUGCCUAGACUGCC [G30C G36C]  0.06
15. GGCAGAGCUCAACACAGCGUGGCAAAGUGGUUGUGUCUAGACUGCC [C31U G36U]  0.06
16. GGCAGAGCUCAACACAGCGUGGCAAAGUGGCUGUGGCUGGACUGCU [A39G C46U]  0.07
17. GGCAGAGCUCAACACACCGUGGCAAAGUGGCAGUGGCUAGACUGCC [G17C U32A]  0.07
18. GGCAGAGCUCAACAUAGCGUGGCAAAGUGGCUGUGGCUAGAAUGCC [C15U C42A]  0.08
19. GGCAGAGCUCAACACAGCGUGGCAAAGUGGCUGUAGCUCGACUGCC [G35A A39C]  0.08
20. GGCAGAGCUCAACACAGCGGGGCAAAGUGGCUGUGACUAGACUGCC [U20G G36A]  0.08
21. GGCAGAGCUGAACACAGCGUGGCAAAGUGGCUGUGGCUAGACUGCA [C10G C46A]  0.09
22. GGCAGAGCUCAACACAGCGUGGCAAAGUGGCUGUGGCUUGACUCCC [A39U G44C]  0.09
23. GGCAGAGCUCAAGACAGAGUGGCAAAGUGGCUGUGGCUAGACUGCC [C13G C18A]  0.09
24. GGCAGACCUCAACACAGCGUGGCAAAGUGGCUGUGGAUAGACUGCC [G7C C37A]  0.09
25. GGCACAGCUCAAAACAGCGUGGCAAAGUGGCUGUGGCUAGACUGCC [G5C C13A]  0.09
26. GGCAGAGCUCAACACAGCGUGGCAAAGUGGAUGUGACUAGACUGCC [C31A G36A]  0.11
27. GGCAGAGCUCAUCACAGCGUGGCAAAGUGGCUGUGGCUAGACUUCC [A12U G44U]  0.11
28. GGCAGAGCUCAACACAACGUGGCAAAGUGGCUGUGGCUAGACUGCG [G17A C46G]  0.12
29. GGCAGAGCUCAACACAGCGUGGCAAAGUGCCUGAGGCUAGACUGCC [G30C U34A]  0.12
30. GGCAGAGCUCAACACAGCGUCGCAAAGUGGCAGUGGCUAGACUGCC [G21C U32A]  0.13
31. GGCAAAGCUCAACACAGCGUGGCAAAGUUGCUGUGGCUAGACUGCC [G5A G29U]  0.13
32. GGCAGAGCUCAACAUAGCGUGGCAAAGUGGCUGUGGCUAGACCGCC [C15U U43C]  0.14
33. GGCAGAGCUCAACACAGCGUGUCAAAGUGGCUGUGACUAGACUGCC [G22U G36A]  0.15
34. GGCCGAGCUCAACACAGCGUGGUAAAGUGGCUGUGGCUAGACUGCC [A4C C23U]  0.16
35. GGCAGAGCUCAACACAGCGUGGCAAAGUGGCUGUGGAUAGACUUCC [C37A G44U]  0.18
36. GGCAGAGCUCAUCACAGCGUGGCAAACUGGCUGUGGCUAGACUGCC [A12U G27C]  0.22
37. GGCAGAGCUCAACACAGCGUGGCAAAUUGGCUGUGGCUAGGCUGCC [G27U A41G]  0.27
38. GGCAGAGCUCAAUACAGCGUGGCAAAGUAGCUGUGGCUAGACUGCC [C13U G29A]  0.28
39. GGCAGAGCUCAACACAGCGUAGCAAAGUGGCUGUGGCUAAACUGCC [G21A G40A]  0.29
40. GGCAGAACUCAACACAGCGUGGCAAAGUGGCUGUGGCUAGACUGCU [G7A C46U]  0.32
41. GGCAGAGCUCAACGCAGCGUGACAAAGUGGCUGUGGCUAGACUGCC [A14G G22A]  0.34
42. UGCAGAGCUCAACACAGCGUGGCAAAGUUGCUGUGGCUAGACUGCC [G1U G29U]  0.38
43. GGCAGAGCUCAACACAGCGAGCCAAAGUGGCUGUGGCUAGACUGCC [U20A G22C]  0.38
44. GGCAGAGCUCAACACAGCGGGGCAAAGUGUCUGUGGCUAGACUGCC [U20G G30U]  0.47
45. GCCAGAGCUCAACACAGCGUAGCAAAGUGGCUGUGGCUAGACUGCC [G2C G21A]  0.51
46. GGCAUAGAUCAACACAGCGUGGCAAAGUGGCUGUGGCUAGACUGCC [G5U C8A]  0.53
47. GGCAGAGCUCAACACAGCUUGGCAAAGAGGCUGUGGCUAGACUGCC [G19U U28A]  0.63
48. GGCAGAGCUCAACACAGCAUUGCAAAGUGGCUGUGGCUAGACUGCC [G19A G21U]  0.72
49. GGCAGAGCUCAACACAGCGAGGUAAAGUGGCUGUGGCUAGACUGCC [U20A C23U]  0.8
50. GGCAGAGCUCAACACAGCGUGGCAAGGUGGCUGUGGCUAGACUGCC [A26G]  0.87
51. GGCAGAGCUCAACACAGCGUGGCAAAACGGCUGUGGCUAGACUGCC [G27A U28C]  0.87
52. GGCAGAGCUCAACACAGCGUGGCGAAGUGGCUGUGGCUAGACUGCU [A24G C46U]  0.93
53. GGCAGAGCUCAACACAGUGCGGCAAAGUGGCUGUGGCUAGACUGCC [C18U U20C]  0.98
54. GGCAGAGCUCAACACAGCGUGGCAUAGUGGCUGUGGCUAGACUGCC [A25U]  1.21
55. GGCAGAGCUCAACAUAGCCUGGCAAAGUGGCUGUGGCUAGACUGCC [C15U G19C]  1.39
56. GGCAGUGCUCAACACAGCGUGGCUAAGUGGCUGUGGCUAGACUGCC [A6U A24U]  1.6
